The values below come from US20040229288A1 (AJINOMOTO, published 2004).

Assay [1] has as its target GPIb-mIgG2aFc chimeric protein (N-terminus side region of human glycoprotein Ib, amino acid numbers 1-319, fused to the Fc region of mouse immunoglobulin γ2a) (human (glycoprotein Ib part); mouse (immunoglobulin γ2a Fc part)). Briefly: Eu-labelled vWF with botrocetin on captured chimeric protein, in the presence of the competitor AJvW-2 (as the table names it).
The target is the same in assay [2]. Briefly: Eu-labelled vWF on captured chimeric protein, ristocetin 1 mg/ml, competitor recombinant AS1051 at 20 µg/ml.
Assay [3] has the same target. The assay can be described thus: Eu-labelled vWF on captured chimeric protein, ristocetin 0.25 mg/ml, competitor recombinant AS1051 at 20 µg/ml.
Assay [4] shares this target. The assay can be described thus: Eu-labelled vWF on captured chimeric protein, ristocetin 0 mg/ml, competitor recombinant AS1051 at 20 µg/ml.
Assay [5] has the same target. The assay can be described thus: Eu-labelled vWF on captured chimeric protein, ristocetin 0.5 mg/ml, competitor recombinant AS1051 at 20 µg/ml.
For assay [6] the target is unchanged. The assay can be described thus: Eu-labelled vWF (500 ng/ml solution) with botrocetin (500 ng/ml) on chimeric protein captured by anti-mouse immunoglobulin antibodies, no inhibitor.
Assay [7] shares this target. The assay can be described thus: Eu-labelled vWF (500 ng/ml) on captured chimeric protein, ristocetin 0 mg/ml, no inhibitor.
Assay [8] has the same target. The assay can be described thus: Eu-labelled vWF (500 ng/ml) on captured chimeric protein, ristocetin 2 mg/ml, no inhibitor.
For assay [9] the target is unchanged. Briefly: Eu-labelled vWF (500 ng/ml) on captured chimeric protein, ristocetin 1 mg/ml, no inhibitor.
Assay [10] has the same target. The assay can be described thus: Eu-labelled vWF (500 ng/ml) on captured chimeric protein, ristocetin 0.5 mg/ml, no inhibitor.
The target is the same in assay [11]. Briefly: Eu-labelled vWF (500 ng/ml) on captured chimeric protein, ristocetin 0.25 mg/ml, no inhibitor.
Assay [12] shares this target. Briefly: Eu-labelled vWF on captured chimeric protein, ristocetin 2 mg/ml, competitor recombinant AS1051 at 20 µg/ml.
Assay [13] concerns the target T1, human von Willebrand factor (human, UniProt P04275 764-2813).
T1 construct: also called vWF; von Willebrand factor labeled with europium (Eu)
Briefly: ELISA: GPIb-mIgGlFc culture supernatant on vWF immobilised with botrocetin, detected with biotinylated anti-mouse IgG-Fc antibodies. How it is done:
Immobilization of a mixed solution of von Willebrand factor and botrocetin on a 96-well multititer plate was attained as follows. First, a physiological saline solution of von Willebrand factor (250 μg/ml) and a physiological saline solution of botrocetin (500 μg/ml), which were prepared in a conventional manner, were appropriately diluted, and mixed at the concentration ratios shown in FIG. 2. Then, 50 μl of each mixture was added to each well of a 96-well multititer plate (Maxisorp, produced by Nunc). The plate was left stand overnight at 4° C., and then each well was washed once with a physiological Tris buffer (150 μl, 20 mM Tris-HCl (pH 7.4), 0.15 M sodium chloride; Tris buffered saline, referred to as “TBS” hereinafter). Then, each well was added with 100 μl of TBS containing 10% BSA (bovine serum albumin), left stand for about 3 hours, and washed 3 times with TBS to obtain a von Willebrand factor immobilized plate. […]

The target of assay [14] is T1, human von Willebrand factor. The assay can be described thus: Ratio of control count to count with AS1051; Eu-labelled chimeric protein on vWF immobilised with botrocetin. The procedure: The binding of the europium (Eu) labeled chimeric protein and the von Willebrand factor immobilized in the presence of botrocetin prepared as described above was detected as follows. According to the method mentioned in Example 4 <1>, a mixed solution (TBS) containing 2.5 μg/ml of von Willebrand factor and 2.5 μg/ml of botrocetin was added to each well of a 96-well multititer plate (microtitration plate DELFIA, 1244-550, produced by Wallac), immobilized overnight and subjected to washing, blocking and washing to prepare a von Willebrand factor immobilized plate.
Each well of the above plate was added with 25 μl of an assay buffer containing 0.5% BSA (Assay Buffer, Wallac DELFIA 1244-106, produced by Wallac, Composition: 0.5% BSA, 0.05% bovine γ-globulin, 0.01% Tween-40, 20 μM DTPA (diethylenetriamine […] acid), 50 mM Tris-HCl buffered saline (pH 7.8), 0.05% sodium azide) or the recombinant AS1051 (in which Cys81 was replaced with Ala, N. Fukuchiet al., WO 95/08573) at a final concentration of 20 μg/ml as the binding inhibition substance, further added with 25 μl of a solution of europium. […] Then, the amount of europium (Eu) was measured by using a DELFIA Research fluorophotometer (1230 ARCUS Fluorometer, produced by Wallac, measurement time: 1 second). […]

The target is the same in assay [15]. The assay can be described thus: Ratio of control count to count with inhibitor; Eu-labelled chimeric protein on immobilised vWF, botrocetin in liquid phase. How it is done: A TBS solution (50 μl) containing human von Willebrand factor (2.5 μg/ml) was added to each well of a 96-well plate, and the von Willebrand factor was immobilized as a solid phase overnight at 4° C. Each well was washed once with TBS (150 μl) and blocked with TBS containing 5% BSA for about 3 hours. Each well of the plate was washed twice with TBS (150 μl), and then added with 25 μl of an assay buffer (Assay Buffer, Wallac DELFIA 1244-106, produced by Wallac, composition was mentioned in Example 4 <2>) or a recombinant AS1051 (in which Cys81 was replaced with Ala) at a final concentration of 20 μg/ml, further added with the assay buffer (25 μl) containing the europium (Eu)-labeled chimeric protein prepared in Example 4 <2> (100 ng/ml) and botrocetin (500 ng/ml), and left stand at room temperature for 3 hours. Each well of the plate was washed 5 times with TBS ([…]) containing 0.05% Tween-20, then added with 100 μl of a fluorescence enhancement buffer (Enhancement solution, 1244-104, produced by Wallac, composition was mentioned in Example 4 <2>), and shaken for 1 minute. Then, the amount of europium (Eu) was measured by using a 1420 ARVO multi-label counter (produced by Wallac, measurement time: 1 second). The measured values (with no addition of sample or addition of the inhibition sample) and CV value (deviation, %) are shown in Table 2.

With “human von Willebrand factor (from UniProt P04275 764-2813) (ligand)”, in [1], the Average value of count with addition of AJvW-2 (10 µg/ml) was 2340 counts. Besides, the Binding amount in the presence of inhibition substance (count) came out at 3020 counts in assay [2]; 3080 counts in [3]; 3250 counts in assay [4]; 1850 counts in assay [5]; 6880 counts in assay [12]. This molecule also displayed an Average value of count in control in assay [6] of 37300 counts. The Binding amount (count) in [7] came to 2820 counts; in assay [8] it was 46200 counts; in [9], 13300 counts; in [10], 3660 counts; in assay [11] it was 3010 counts.

B1: GPIb-mIgGlFc chimeric protein (N-terminal region of human glycoprotein Ibα chain fused to the Fc region of mouse immunoglobulin γ1) (Fc fusion)
chain: HPICEVSKVASHLEVNCDKRNLTALPPDLPKDTTILHLSENLLYTFSLATLMPYTRLTQLNLDRCELTKLQVDGTLPVLGTLDLSHNQLQSLPLLGQTLPALTVLDVSFNRLTSLPLGALRGLGELQELYLKGNELKTLPPGLLTPTPKLEKLSLANNNLTELPAGLLNGLENLDTLLLQENSLYTIPKGFFGSHLLPFAFLHGNPWLCNCEILYFRRWLQDNAENVYVWKQGVDVKAMTSNVASVQCDNSDKFPVYKYPGKGCPTLGDEGDTDLYDYYPEEDTEGDKVRATRTVVKFPTKAHTTPWGLFYSWSTASLDVPRDCGCKPCICTVPEVSSVFIFPPKPKDVLTITLTPKVTCVVVDISKDDPEVQFSWFVDDVEVHTAQTQPREEQFNSTFRSVSELPIMHQDWLNGKEFKCRVNSAAFPAPIEKTISKTKGRPKAPQVYTIPPPKEQMAKDKVSLTCMITDFFPEDITVEWQWNGQPAENYKNTQPIMDTDGSYFVYSKLNVQKSNWEAGNTFTCSVLHEGLHNHHTEKSLSHSPGK
notes: Used as serum-free culture supernatant of transfected CHOdhfr- cells, diluted 8-fold, not purified; also called GPIb-mIgG1Fc; GPIbFcFH
Take B1: in assay [13], the binding result was “binds”.

B2: GPIb-mIgG2aFc chimeric protein (N-terminus side region of human glycoprotein Ib, amino acid numbers 1-319, fused to the Fc region of mouse immunoglobulin γ2a) (Fc fusion)
chain: HPICEVSKVASHLEVNCDKRNLTALPPDLPKDTTILHLSENLLYTFSLATLMPYTRLTQLNLDRCELTKLQVDGTLPVLGTLDLSHNQLQSLPLLGQTLPALTVLDVSFNRLTSLPLGALRGLGELQELYLKGNELKTLPPGLLTPTPKLEKLSLANNNLTELPAGLLNGLENLDTLLLQENSLYTIPKGFFGSHLLPFAFLHGNPWLCNCEILYFRRWLQDNAENVYVWKQGVDVKAMTSNVASVQCDNSDKFPVYKYPGKGCPTLGDEGDTDLYDYYPEEDTEGDKVRATRTVVKFPTKAHTTPWGLFYSWSTASLDEPRGPTIKPCPPCKCPAPNLLGGPSVFIFPPKIKDVLMISLSPIVTCVVVDVSEDDPDVQISWFVNNVEVHTAQTQTHREDYNSTLRVVSALPIQHQDWMSGKEFKCKVNNKDLPAPIERTISKPKGSVRAPQVYVLPPPEEEMTKKQVTLTCMVTDFMPEDIYVEWTNNGKTELNYKNTEPVLDSDGSYFMYSKLRVEKKNWVERNSYSCSVVHEGLHNHHTTKSFSRTPGK
notes: Purified on Protein A from CHOK1 culture supernatant; also called europium (Eu) labeled chimeric protein
Turning to B2, the S/N ratio was determined as 28.5 in assay [14] and 35 in [15].
